In paper PMC9006895:

Assays:
[1] = biological target: flotillin 2-MBP (Laodelphax striatellus); experiment: MST; Monolith NT.115; flotillin 2-MBP labeled with NHS-495 held at 10 μM, NP-GST diluted from 17.5 μM to 0.0417 nM; 25°C
[2] = biological target: flotillin 2-MBP (Laodelphax striatellus); experiment: BLI; Octet RED96e; biotinylated flotillin 2-MBP (5 μM) loaded on streptavidin biosensors; NP-GST 0 to 4,000 nM in 1× PBS; 25°C; buffer 20 mM NaH2PO4, 150 mM NaCl, 0.05% Tween 20

## NP-GST (natural protein)
[1]
  Kd: 791 nM
[2]
  Kd: 619 nM
  koff: 0.00382 s⁻¹
  kon: 6170 M⁻¹ s⁻¹
